Laboratory results from patent US7265267.

Molecular target: CDK complexes from A. thaliana purified on p13suc1 sepharose beads
Assay: cell-based or functional assay

B1: Purified recombinant FL66 protein (E. coli, FL66pET21d), starting at methionine 11 (protein)
chain: MEVSKATAPSPGVRTRAAKTLALKRLNSSAADSALPNDSSCYLQLRSRRLEKPSSLIEPKQPPRVHRSGIKESGSRSRVDSVNSVPVAQSSNEDECFDNFVSVQVSCGENSLGFESRHSTRESTPCNFVEDMEIMVTPGSSTRSMCRATKEYTREQDNVIPTTSEMEEFFAYAEQQQQRLFMEKYNFDIVNDIPLSGRYEWVQVKP
CDK activity measured using histone H1 as substrate, compared to a control sample without FL66; 10 nM FL66 (% of the control): 82 | CDK activity measured using histone H1 as substrate, compared to a control sample without FL66; 100 nM FL66 (% of the control): 74 | CDK activity measured using histone H1 as substrate, compared to a control sample without FL66; 1 uM FL66 (% of the control): 56 | CDK activity measured using histone H1 as substrate, compared to a control sample without FL66; 10 uM FL66 (% of the control): 12 | kinase activity of the CDK fraction bound to p13suc1 beads, FL66 added prior to washing of the beads; 0.1 uM FL66 (% of the control): 81 | kinase activity of the CDK fraction bound to p13suc1 beads, FL66 added prior to washing of the beads; 10 uM FL66 (% of the control): 35
